Reference: patent publication US5204445A, “Peptides and antibodies that inhibit integrin-ligand binding” (The Scripps Research Institute, priority 1989, dated 1993)

How the values were obtained:
beta subunit (GPIIIa) = target: T1, beta subunit (GPIIIa) (Homo sapiens, UniProt P05106+P08514); experiment: Chemical crosslinking of 125I-labeled RGD peptide to platelets (BS3), SDS-PAGE and autoradiography; format: binding; conditions: 125I-Fn-7 20 μM, thrombin-stimulated platelets, 45 min at 22° C., BS3 0.2 mM
T1 construct: Platelets were isolated from fresh human blood collected into acid/citrate/dextrose; endogenous in cells; host or cells: washed human platelets, thrombin-stimulated or nonstimulated
Protocol: FIG. 2 illustrates the results of the crosslinking of an RGD peptide to discrete sites in the beta subunit (GPIIIa) of an Integrin adhesion receptor. The ^125 I-labeled RGD peptide, Fn-7 (20 μM), was bound to platelet (6×10^8 /ml) for 45 min at 22° C., and crosslinked with BS^3 (0.2 mM). The fragmentation patterns after proteolysis were analyzed by SDS-PAGE [Laemmli, Nature. 227:680 (1970)] and autoradiography. […] Lanes 2-7, GPIIIa:Fn-7 bands were excised from gels, subjected to proteolysis and then analyzed by SDS-PAGE (15% gels, reducing conditions). For lanes 2-5, GPIIIA:Fn-7 bands were excised and digestions with V-8 protease were performed within the gel slices as described in Cleveland et al., J. Biol. Chem., 252:1102 (1977).
Platelet binding of Fn-7 followed the protocols previously described for measuring platelet interactions with adhesive proteins and with this and other peptides. See, Ginsberg et al., J. Biol. Chem., 260:3931-3936 (1985); Lam et al , Fed. Proc. Fed. Am. Soc. Exp. Biol., 44:1126 (1985); and Marguerie et al., supra. […]
The cell-bound ligand was recovered by centrifugation through 20% sucrose, and the cells were extracted in PBS containing 1% Nonidet P40 and […] N-ethylmaleimide (Sigma). […] The cross-linked samples were analyzed by electrophoresis (SDS-PAGE) on polyacrylamide vertical slab gels in the buffer system of Laemmli, Nature, […] (1970). […]

alpha subunit (GPIIb) = target: T2, alpha subunit (GPIIb) (Homo sapiens, UniProt P05106+P08514); experiment: as above; format: binding; conditions: 125I-Fn-7 20 μM, thrombin-stimulated platelets, 45 min at 22° C., BS3 0.2 mM
T2 construct: Platelets were isolated from fresh human blood collected into acid/citrate/dextrose; endogenous in cells; host or cells: washed human platelets, thrombin-stimulated

crosslinking to the beta subunit (GPIIIa) (beta subunit (GPIIIa)): predominance
crosslinking to the alpha subunit (GPIIb) (alpha subunit (GPIIb)): more minor crosslinking
Sequence: KYGRRGDS [Fn-7, RGD-peptide with lysine for crosslinking and tyrosine for radioiodination]
